Data: patent US20260265403A1

Tests used:
[1] = biological target: human CD24 on cells (human) (UniProt P25063); assay: flow cytometry (GMFI), A549 cells
[2] = biological target: CD24-his protein (human) (UniProt P25063); assay: ELISA, CD24-his (HEK 293), unit taken from the concentration axis
[3] = biological target: human CD24 on cells (human) (UniProt P25063); assay: flow cytometry (GMFI), OVCAR3 cells
[4] = biological target: human CD24 on cells (human) (UniProt P25063); assay: flow cytometry (GMFI), MCF-7 cells [Cont'd) C]
[5] = biological target: Human CD24 (human) (UniProt P25063); assay: Biacore (SPR); antibody as ligand, human CD24 as analyte
[6] = biological target: human CD24 on cells (human) (UniProt P25063); assay: flow cytometry (GMFI), NALM6 cells
[7] = biological target: human CD24 on cells (human) (UniProt P25063); assay: flow cytometry (GMFI), MCF-7 cells
[8] = biological target: CD24-his protein (human) (UniProt P25063); assay: ELISA, CD24-his(HEK 293) [Cont'd) B]
[9] = biological target: human CD24 on cells (human) (UniProt P25063); assay: flow cytometry (GMFI), SKOV3 cells; EC50 table under the graphs [Cont'd) B]
[10] = biological target: human CD24 on cells (human) (UniProt P25063); assay: flow cytometry (GMFI), MCF-7 cells; EC50 table under the graphs
[11] = biological target: CD24-his-GST(Ecoli); assay: ELISA, CD24-his-GST(Ecoli) [Cont'd) B]
[12] = biological target: CD24-his protein (human) (UniProt P25063); assay: Siglec10-PE competition assay (gMFI on the sheet); legend: Siglec-10-his-Biotin mixed with the antibody, plate coated with CD24 protein
[13] = biological target: human CD24 on cells (human) (UniProt P25063); assay: flow cytometry (GMFI), MC38-hCD24 cells [Cont'd) C]
[14] = biological target: human CD24 on cells (human) (UniProt P25063); assay: cell-based or functional assay
[15] = biological target: human CD24 on cells (human) (UniProt P25063); assay: flow cytometry (MFI), MCF-7 cells [Cont'd) B]
[16] = biological target: human CD24 on cells (human) (UniProt P25063); assay: flow cytometry (MFI), NALM6 cells [Cont'd) B]
[17] = biological target: human CD24 on cells (human) (UniProt P25063)

Chain of CD24-his protein (human) (P25063 27-59 limits assumed): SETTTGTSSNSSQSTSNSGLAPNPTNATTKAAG
Chain of Human CD24 (human) (P25063 27-59 limits assumed): as above
Chain of human CD24 on cells (human) (P25063 27-59): as the sequence (P25063 27-59 limits assumed) above
Chain of CD24-his-GST(Ecoli) (chain, as listed by the source limits assumed): as the sequence (P25063 27-59 limits assumed) above

| Substance | EC50 (read off the curve) [1] [µg/mL] | EC50 [2] [µg/mL] | EC50 (read off the curve) [3] [µg/mL] | EC50 (read off the curve) [4] [µg/mL] | Kd [5] [nM] | EC50 (read off the curve) [6] [µg/mL] | EC50 (read off the curve) [7] [µg/mL] | EC50 (read off the curve) [8] [µg/mL] | EC50 [9] [µg/mL] | EC50 [10] [µg/mL] | other results |
| --- | --- | --- | --- | --- | --- | --- | --- | --- | --- | --- | --- |
| NS-17(SWA11) (antibody) |  |  |  |  |  |  |  |  |  |  | EC50 of Phagocytosis assay, IgG1, Kappa; MCF-7 [14]: 0.02 µg/mL; EC50 of Phagocytosis assay, IgG1, Kappa; NALM6 [14]: 1.01 µg/mL; EC50 of Phagocytosis assay, IgG1, Kappa; OVCAR3 [14]: 0.91 µg/mL; EC50 of Phagocytosis assay, IgG4, Kappa; MCF-7 [14]: 0.09 µg/mL; EC50 of Phagocytosis assay, IgG4, Kappa; NALM6 [14]: 0.18 µg/mL |
| human isotype IgG4 (antibody) |  |  |  |  |  |  |  |  | 3.48 | 12.9 |  |
| anti-CD24 ab(SN3) (antibody) |  |  |  |  |  |  |  |  |  |  | EC50 (read off the curve) [15]: 0.1 µg/mL; EC50 (read off the curve) [16]: 0.09 µg/mL; EC50 (read off the curve), phagocytosis of NALM6 cells [17]: 0.3 µg/mL; EC50 (read off the curve), phagocytosis of OVCAR3 cells [17]: 0.7 µg/mL |

The next lines start with results.

| EC50 (read off the curve) [1] [µg/mL] | EC50 [2] [µg/mL] | EC50 (read off the curve) [3] [µg/mL] | EC50 (read off the curve) [4] [µg/mL] | Kd [5] [nM] | EC50 (read off the curve) [6] [µg/mL] | EC50 (read off the curve) [7] [µg/mL] | EC50 (read off the curve) [8] [µg/mL] | EC50 [9] [µg/mL] | EC50 [10] [µg/mL] | Substance | other results |
| --- | --- | --- | --- | --- | --- | --- | --- | --- | --- | --- | --- |
| 0.3 | 0.0277 | 0.4 | 0.3 | 165 | 0.3 | 0.5 | 0.03 | 0.38 | 0.53 | IMM47H (antibody) |  |
| 0.3 | 0.0202 | 0.7 | 0.4 | 12.4 | 0.6 | 0.3 | 0.02 |  |  | GB7011 (antibody) | EC50 (read off the curve) [11]: 0.02 µg/mL; IC50 (read off the curve) [12]: 2 µg/mL; koff [5]: 0.0104 s⁻¹; kon [5]: 839000 M⁻¹ s⁻¹; EC50 (read off the curve) [13]: 0.3 µg/mL |
